Assay [1] addresses T1, GST-TIAM1 PDZ domain fusion protein (Homo sapiens (Human), UniProt Q13009 845-931).
T1 construct: also called TLAM1; T-lymphoma invasion and metastasis inducing protein 1; not shown: glutathione S-transferase encoded by vector pGEX-3X (Pharmacia)
Briefly: A/G plate assays, Table 2 matrix.

In assay [2] the target is T2, GST-PSD95 fusion protein (PDZ domains 1-3) (human, UniProt P31016 56-395 (rat entry)).
T2 construct: also called human post-synaptic density protein 95; not shown: glutathione S-transferase encoded by vector pGEX-3X (Pharmacia)
In words: G assay: biotinylated peptide on plate-bound GST-PDZ fusion, OD 450 nm.

The target in assay [3] is T3, GST-41.8 kD protein (KIAA0751) PDZ domain fusion protein (Mus musculus (Mouse), UniProt Q9EQZ7 682-763).
T3 construct: also called 41 kd; hypoth; not shown: glutathione S-transferase encoded by vector pGEX-3X (Pharmacia)
T3 sequence: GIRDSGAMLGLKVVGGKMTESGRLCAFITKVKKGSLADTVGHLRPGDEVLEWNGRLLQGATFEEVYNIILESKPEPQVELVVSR
In words: G assay: biotinylated peptide on plate-bound GST-PDZ fusion, streptavidin-HRP, OD 450 nm.

For assay [4], the target named is T2, GST-PSD95 fusion protein (PDZ domains …). Briefly: G assay titration of biotinylated peptide on plate-bound GST-PDZ, apparent affinity from saturation fit.
For assay [5], the target named is T3, GST-41.8 kD protein (KIAA0751) PDZ …. Briefly: G assay: biotinylated peptide on plate-bound GST-PDZ fusion, OD 450 nm; no GST-alone bar on the sheet.
For assay [6], the target named is T4, KIAA0807 (PDZ domain)-GST fusion protein (human, UniProt Q6P0Q8 1104-1192).
T4 construct: also called K807; KIAA807; not shown: glutathione S-transferase encoded by vector pGEX-3X (Pharmacia)
T4 sequence: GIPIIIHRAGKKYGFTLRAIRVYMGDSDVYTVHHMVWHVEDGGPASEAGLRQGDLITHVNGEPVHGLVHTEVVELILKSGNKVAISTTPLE
Briefly: G assay on KIAA0807:GST fusion protein, 1 uM labeled peptide.

Assay [7] deals with T3, GST-41.8 kD protein (KIAA0751) PDZ …. Briefly: A/G plate assays, Table 2 matrix.
For assay [8], the target named is T5, GST-AF6 PDZ domain fusion protein (Homo sapiens (Human), UniProt P55196 1001-1093).
T5 construct: also called af-6 protein; not shown: glutathione S-transferase encoded by vector pGEX-3X (Pharmacia)
T5 sequence: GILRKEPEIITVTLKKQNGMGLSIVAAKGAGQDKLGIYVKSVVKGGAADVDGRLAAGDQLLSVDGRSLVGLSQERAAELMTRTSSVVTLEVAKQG
In words: A/G plate assays, Table 2 matrix.

Assay [9] concerns the target T6, GST-LIM protein PDZ domain fusion protein (Human, UniProt Q96HC4 2-85).
T6 construct: also called Human LIM protein; not shown: glutathione S-transferase encoded by vector pGEX-3X (Pharmacia)
T6 sequence: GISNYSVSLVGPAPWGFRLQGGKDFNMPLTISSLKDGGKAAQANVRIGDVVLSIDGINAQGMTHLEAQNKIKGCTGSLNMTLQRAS
In words: A/G plate assays, Table 2 matrix.

The target of assay [10] is T7, GST-RGS12 PDZ domain fusion protein (human, UniProt O14924 17-85).
T7 construct: also called human regulator of G-protein signalling 12; not shown: glutathione S-transferase encoded by vector pGEX-3X (Pharmacia)
T7 sequence: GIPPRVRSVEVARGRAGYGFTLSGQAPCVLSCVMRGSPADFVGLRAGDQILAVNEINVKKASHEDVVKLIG
Briefly: A/G plate assays, Table 2 matrix.

In assay [11] the target is T2, GST-PSD95 fusion protein (PDZ domains …). Briefly: G assay: biotinylated peptide on plate-bound GST-PDZ fusion, streptavidin-HRP, OD 450 nm.
For assay [12], the target named is T3, GST-41.8 kD protein (KIAA0751) PDZ …. In words: A/G assays.
Assay [13] has as its target T2, GST-PSD95 fusion protein (PDZ domains …). Briefly: A/G assays.
Assay [14] has the same target. In words: A/G plate assays, Table 2 matrix.
For assay [15], the target named is T4, KIAA0807 (PDZ domain)-GST fusion protein. Briefly: G assay on KIAA0807:GST fusion protein, 10 uM labeled peptide.
In assay [16] the target is T8, GST-KIAA0303 PDZ domain fusion protein (Homo sapiens (Human), UniProt O15021 1138-1228).
T8 construct: also called K303; not shown: glutathione S-transferase encoded by vector pGEX-3X (Pharmacia)
T8 sequence: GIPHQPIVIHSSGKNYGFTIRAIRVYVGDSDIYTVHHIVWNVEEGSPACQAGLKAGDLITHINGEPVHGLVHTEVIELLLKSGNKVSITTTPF
In words: A/G plate assays, Table 2 matrix.

Assay [17] concerns the target T9, GST-PTN-4 PDZ domain fusion protein (Homo sapiens (Human), UniProt P29074 517-605).
T9 construct: also called protein-tyrosine phosphatase meg1; not shown: glutathione S-transferase encoded by vector pGEX-3X (Pharmacia)
T9 sequence: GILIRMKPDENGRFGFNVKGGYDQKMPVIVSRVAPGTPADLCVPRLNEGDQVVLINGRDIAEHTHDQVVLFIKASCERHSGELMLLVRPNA
Briefly: A/G plate assays, Table 2 matrix.

The target in assay [18] is T4, KIAA0807 (PDZ domain)-GST fusion protein. In words: A/G plate assays, Table 2 matrix.

Ends that are not written are not given here. * marks the point of attachment. Biotin = O=C1N[C@H]2[C@H](CS[C@H]2CCCCC(=O)*)N1

T2 sequence (P31016 other isoform, or with tags, fused parts or gaps): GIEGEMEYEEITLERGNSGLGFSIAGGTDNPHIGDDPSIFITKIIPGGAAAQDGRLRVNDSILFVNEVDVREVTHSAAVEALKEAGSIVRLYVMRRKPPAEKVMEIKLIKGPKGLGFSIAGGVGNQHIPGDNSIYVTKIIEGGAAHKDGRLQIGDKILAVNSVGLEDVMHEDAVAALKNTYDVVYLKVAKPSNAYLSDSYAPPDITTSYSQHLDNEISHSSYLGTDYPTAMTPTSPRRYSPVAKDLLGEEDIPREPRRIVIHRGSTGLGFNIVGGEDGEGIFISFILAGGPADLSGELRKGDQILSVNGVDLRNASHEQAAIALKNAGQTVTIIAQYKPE
T1 sequence (Q13009 other isoform, or with tags, fused parts or gaps): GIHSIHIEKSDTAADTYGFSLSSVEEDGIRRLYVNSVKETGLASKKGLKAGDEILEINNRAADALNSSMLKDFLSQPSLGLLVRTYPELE

B1: CD138 C-terminal peptide AA18L, biotinylated (peptide)
peptide: Biotin-PKQANGGAYQKPTKQEEFYA
notes: also called CD138 (syndecan-1); CD138 (syndecan)
Regarding B1, the binding result in assay [1] is listed as “binds”; in [2], “no binding”; in [3], “binds”.
Take Biotin-ISGTPTSTMVHGMTSSSSVV [Clasp-2 C-terminal peptide AA2L, biotinylated]: the Kd in assay [4] was 45 µM.
As to Biotin-PSWRRSSLSESENATSLTTF (also called CXCR5) [BLR-1 C-terminal peptide AA45L, biotinylated], the results for the binding result in [5], in assay [2] and in [6] were “no binding”, “no binding” and “binds”, respectively.
In the case of Biotin-TREDIYVNYPTFSRRPKTRV [DNAM-1 C-terminal peptide AA22L, biotinylated], the binding result in [7], in assay [8], in assay [9], in [10] and in assay [11] was “binds” in each case.
For Biotin-STNHSIGSTQSTPCSTSSMA (also called CD105 (endoglin)) [CD105 C-terminal peptide AA16L, biotinylated], the binding result in [12] is on record as “no binding”; in assay [13], “no binding”; in assay [9], “binds”.
Regarding Biotin-LASKSAEEGKQIPDSLSTDL [DOCK2 C-terminal peptide AA40L, biotinylated], the binding result was “no binding” in assay [12], “binds” in assay [14] and “binds” in [15].

B2: Spectrin (beta) C-terminal peptide AA32L, biotinylated (peptide)
peptide: Biotin-SFPPCGHRENVPGQSLVSFV
notes: Marked (S), sticky; also called Spectrin beta (S); Spectrin β
Regarding B2, the binding result in [12] is reported as “no binding”; in assay [16], “binds”; in assay [17] it was “binds”; in assay [18] it was “binds”; in [14], “binds”; in assay [8], “binds”.
As to Biotin-KDITSDSENSNFRNEIQSLV (also called CD95 (Apo-1/Fas); AAI3L) [CD95 (Fas) C-terminal peptide AA13L, biotinylated], in assay [3], the binding result is reported as “binds”. In addition, in assay [4], the Kd was determined as 85 µM.
Take Biotin-ARKANMKGSYSLVEAQKSKV (also called CD106) [VCAM1 C-terminal peptide AA17L, biotinylated]: the binding result in assay [13] was “no binding”; in [16] it was “binds”; in assay [7], “binds”; in assay [18], “binds”; in assay [1], “binds”.
Regarding Biotin-EVICYIEKPGVETLEDSVF [CDW125 (IL5R) C-terminal peptide AA28L, biotinylated], the binding result is given as “no binding” in [12], “no binding” in [13], “binds” in assay [17] and “binds” in assay [10].

The values above are taken from patent US20050037969A1 (ARBOR VITA, published 2005).
